From patent US20180155451A1 (published 2018) come the findings set out here.

To fix the notation:
B1: GpH7-A5/GpH7-B3 variant I332_06M/GpL16-k0 (antibody, human IgG1, kappa)
heavy 1: not shown
heavy 2: not shown
light: DIVMTQSPLSLPVTPGEPASISCQASESLVHSNRNTYLHWYLQKPGQSPQLLIYKVSNRFSGVPDRFSGSGSGTDFTLKISRVEAEDVGVYYCSQNTHVPPTFGQGTKVEIERTVAAPSVFIFPPSDEQLKSGTASVVCLLNNFYPREAKVQWKVDNALQSGNSQESVTEQDSKDSTYSLSSTLTLSKADYEKHKVYACEVTHQGLSSPVTKSFNRGEC
notes: heterodimerized IgG1; alteration in the GpH7-B3 H chain only; also called He Ab
B2: GpH7-A5/GpH7-B3 variant I332_14T/GpL16-k0 (antibody, human IgG1, kappa)
heavy 1: not shown
heavy 2: not shown
light: B1 light
notes: as for B1
B3: GpH7-A5/GpH7-B3 variant I332_15Y/GpL16-k0 (antibody, human IgG1, kappa)
heavy 1: not shown
heavy 2: not shown
light: B1 light
notes: as for B1
B4: GpH7-A5/GpH7-B3 variant P331_20W/GpL16-k0 (antibody, human IgG1, kappa)
heavy 1: not shown
heavy 2: not shown
light: B1 light
notes: as for B1
B5: GpH7-A5/GpH7-B3 variant P331_03V/GpL16-k0 (antibody, human IgG1, kappa)
heavy 1: not shown
heavy 2: not shown
light: B1 light
notes: Heterodimerized anti-glypican-3 IgG1; P331V (EU) only in the GpH7-B3 chain; also called He Ab
B6: GpH7-A5/GpH7-B3 variant P331_08L/GpL16-k0 (antibody, human IgG1, kappa)
heavy 1: not shown
heavy 2: not shown
light: B1 light
notes: Heterodimerized anti-glypican-3 IgG1; P331L (EU) only in the GpH7-B3 chain; also called He Ab
B7: GpH7-A5/GpH7-B3 variant P331_06M/GpL16-k0 (antibody, human IgG1, kappa)
heavy 1: not shown
heavy 2: not shown
light: B1 light
notes: Heterodimerized anti-glypican-3 IgG1; P331M (EU) only in the GpH7-B3 chain; also called He Ab
B8: GpH7-A5/GpH7-B3 variant P331_18N/GpL16-k0 (antibody, human IgG1, kappa)
heavy 1: not shown
heavy 2: not shown
light: B1 light
notes: Heterodimerized anti-glypican-3 IgG1; P331N (EU) only in the GpH7-B3 chain; also called He Ab
B9: GpH7-A5/GpH7-B3 variant L328_20W/GpL16-k0 (antibody, human IgG1, kappa)
heavy 1: not shown
heavy 2: not shown
light: B1 light
notes: Heterodimerized anti-glypican-3 IgG1; L328W (EU) only in the GpH7-B3 chain; also called He Ab
B10: GpH7-A5/GpH7-B3 variant P331_20W/GpL16-k0 (antibody, human IgG1, kappa)
heavy 1: not shown
heavy 2: not shown
light: B1 light
notes: Heterodimerized anti-glypican-3 IgG1; P331W (EU) only in the GpH7-B3 chain; also called He Ab
B11: GpH7-A5/GpH7-B3 variant P329_20W/GpL16-k0 (antibody, human IgG1, kappa)
heavy 1: not shown
heavy 2: not shown
light: B1 light
notes: Heterodimerized anti-glypican-3 IgG1; P329W (EU) only in the GpH7-B3 chain; also called He Ab
B12: GpH7-A5/GpH7-B3 variant I332_11K/GpL16-k0 (antibody, human IgG1, kappa)
heavy 1: not shown
heavy 2: not shown
light: B1 light
notes: Heterodimerized anti-glypican-3 IgG1; I332K (EU) only in the GpH7-B3 chain; also called He Ab
B13: GpH7-A5/GpH7-B3 variant P331_14T/GpL16-k0 (antibody, human IgG1, kappa)
heavy 1: not shown
heavy 2: not shown
light: B1 light
notes: Heterodimerized anti-glypican-3 IgG1; P331T (EU) only in the GpH7-B3 chain; also called He Ab
B14: GpH7-A5/GpH7-B3 variant L328_19Q/GpL16-k0 (antibody, human IgG1, kappa)
heavy 1: not shown
heavy 2: not shown
light: B1 light
notes: Heterodimerized anti-glypican-3 IgG1; L328Q (EU) only in the GpH7-B3 chain; also called He Ab

T2 sequence (P12314 16-292): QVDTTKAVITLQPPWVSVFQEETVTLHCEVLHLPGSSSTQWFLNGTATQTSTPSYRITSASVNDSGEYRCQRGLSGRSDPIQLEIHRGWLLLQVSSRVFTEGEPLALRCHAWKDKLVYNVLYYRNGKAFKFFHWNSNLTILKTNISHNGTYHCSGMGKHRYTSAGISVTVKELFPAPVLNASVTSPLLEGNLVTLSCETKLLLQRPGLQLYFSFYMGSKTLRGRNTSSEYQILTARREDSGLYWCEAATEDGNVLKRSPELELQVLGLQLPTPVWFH
T3 sequence (P08637 17-208): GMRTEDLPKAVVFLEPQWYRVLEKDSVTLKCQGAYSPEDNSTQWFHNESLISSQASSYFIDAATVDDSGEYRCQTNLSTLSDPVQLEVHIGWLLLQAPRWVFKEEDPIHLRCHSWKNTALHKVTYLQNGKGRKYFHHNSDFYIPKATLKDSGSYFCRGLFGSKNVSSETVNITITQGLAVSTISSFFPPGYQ

The first assay addresses T1, FcγRIIb (human, UniProt P31994 43-217).
T1 construct: extracellular domain; also called FcgRIIb; 2b; not shown: His tag at the C terminus
T1 sequence (looked up): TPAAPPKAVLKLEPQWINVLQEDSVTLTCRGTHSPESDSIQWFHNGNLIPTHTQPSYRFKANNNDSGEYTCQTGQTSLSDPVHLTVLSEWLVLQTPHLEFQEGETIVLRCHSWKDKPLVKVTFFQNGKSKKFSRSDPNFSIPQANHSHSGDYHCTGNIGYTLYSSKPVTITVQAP
Nature of the assay: SPR (Biacore), antibody captured, FcγR as analyte; binding as % of GpH7-A5/GpH7-B3/GpL16-k0.
With B1, the He/Con_2b was 105 % of control.

On to B2, for which the He/Con_2b is 106 % of control.

As to B3, the He/Con_2b was 101 % of control.

As for B4, the He/Con_2b is 111 % of control.

The next assay has as its target T2, FcγRIa (human, UniProt P12314 16-292).
T2 construct: extracellular domain; also called FcgRI; 1a; not shown: His tag at the C terminus
Described as above.
With B1, the He/Con_1a is 92.3 % of control.

For B2, the He/Con_1a was 91.8 % of control.

As for B3, the He/Con_1a is 88.8 % of control.

Regarding B4, the He/Con_1a is 94.5 % of control.

The next assay has as its target T3, FcγRIIIa extracellular domain with C-terminal His tag (human, UniProt P08637 17-208).
T3 construct: extracellular domain; also called FcgRIIIa; 3a; not shown: His tag at the C terminus
Nature of the assay: SPR (Biacore), antibody captured on antigen peptide chip, FcγR as analyte. The procedure:
(§1) Analysis of interaction between objective antibody and the FcγR was carried out using Biacore T100 (GE Healthcare). HBS-EP+ (GE Healthcare) was used as the running buffer, and the measurement temperature was set to 25° C. Chips produced by immobilizing the antigen peptide by the amine coupling method to a Series S Sencor Chip CM5 (GE Healthcare), or alternatively, chips produced by allowing preliminarily biotinylated antigen peptides to interact with and immobilize onto a Series S Sensor Chip SA (certified) (GE Healthcare) were used. Antibodies of interest were captured onto an antigen peptide-immobilized chip, and allowed to interact to each FcγR diluted with running buffer. To regenerate and repeatedly use the chip, the antibodies captured on the chip were washed off by reacting 10 mM glycine-HCl, pH 1.5.
(§2) The FcγR-binding activity of each antibody was assessed primarily using as an indicator the FcγR-binding activity and dissociation constant for FcγR.
In the case of B5, the He/Con_3a was 73.2 relative binding (GpH7-A5/GpH7-B3/GpL16-k0 = 100).

Consider B6, for which the He/Con_3a was 72.1 relative binding (GpH7-A5/GpH7-B3/GpL16-k0 = 100).

Turning to B7, the He/Con_3a was 74.8 relative binding (GpH7-A5/GpH7-B3/GpL16-k0 = 100).

Regarding B8, the He/Con_3a was 73.4 relative binding (GpH7-A5/GpH7-B3/GpL16-k0 = 100).

As for B9, the He/Con_3a is 37.4 relative binding (GpH7-A5/GpH7-B3/GpL16-k0 = 100).

B10: the He/Con_3a was 78.6 relative binding (GpH7-A5/GpH7-B3/GpL16-k0 = 100).

In the case of B11, the He/Con_3a was 31.7 relative binding (GpH7-A5/GpH7-B3/GpL16-k0 = 100).

As to B12, the He/Con_3a is 45.1 relative binding (GpH7-A5/GpH7-B3/GpL16-k0 = 100).

On to B13, for which the He/Con_3a is 74.1 relative binding (GpH7-A5/GpH7-B3/GpL16-k0 = 100).

With B14, the He/Con_3a was 81.1 relative binding (GpH7-A5/GpH7-B3/GpL16-k0 = 100).

Another assay deals with T4, FcγRIIb extracellular domain with C-terminal His tag (human, UniProt P31994 43-217).
T4 construct: extracellular domain; Soluble receptor expressed in FreeStyle293 cells, used as analyte in Biacore; also called FcgRIIb; 2b; not shown: His tag at the C terminus
T4 sequence (looked up): T1 sequence (looked up)
The description is as above. The procedure: as §1, §2
For the molecule B5, the He/Con_2b was 119 relative binding (GpH7-A5/GpH7-B3/GpL16-k0 = 100).

With B6, the He/Con_2b is 95.7 relative binding (GpH7-A5/GpH7-B3/GpL16-k0 = 100).

As for B7, the He/Con_2b was 102 relative binding (GpH7-A5/GpH7-B3/GpL16-k0 = 100).

With B8, the He/Con_2b was 99.2 relative binding (GpH7-A5/GpH7-B3/GpL16-k0 = 100).

Regarding B9, the He/Con_2b is 235 relative binding (GpH7-A5/GpH7-B3/GpL16-k0 = 100).

Turning to B10, the He/Con_2b was 111 relative binding (GpH7-A5/GpH7-B3/GpL16-k0 = 100).

B11: the He/Con_2b is 45.1 relative binding (GpH7-A5/GpH7-B3/GpL16-k0 = 100).

As to B12, the He/Con_2b is 70.9 relative binding (GpH7-A5/GpH7-B3/GpL16-k0 = 100).

With B13, the He/Con_2b was 99.8 relative binding (GpH7-A5/GpH7-B3/GpL16-k0 = 100).

Take B14: the He/Con_2b was 105 relative binding (GpH7-A5/GpH7-B3/GpL16-k0 = 100).

The target in a further assay is T3, FcγRIIIa extracellular domain with …. Briefly: SPR; He/Con_3a divided by He/Con_2b (FcγRIIIa over FcγRIIb). The procedure: as §1, §2
B5: the “He_3a/2b (IIIa/IIb)” value was found to be 0.62 ratio.

As to B6, the “He_3a/2b (IIIa/IIb)” value is 0.75 ratio.

On to B7, for which the “He_3a/2b (IIIa/IIb)” value was 0.74 ratio.

For B8, the “He_3a/2b (IIIa/IIb)” value came to 0.74 ratio.

Consider B9, for which the “He_3a/2b (IIIa/IIb)” value amounted to 0.16 ratio.

Regarding B10, the “He_3a/2b (IIIa/IIb)” value stood at 0.71 ratio.

For the molecule B11, the “He_3a/2b (IIIa/IIb)” value is 0.7 ratio.

With B12, the “He_3a/2b (IIIa/IIb)” value is 0.64 ratio.

On to B13, for which the “He_3a/2b (IIIa/IIb)” value turned out to be 0.74 ratio.

As to B14, the “He_3a/2b (IIIa/IIb)” value was 0.77 ratio.
